As a reminder, the Kd is the equilibrium constant for the complex coming apart. A higher Kd goes with lower affinity.

This is an account of results in paper PMC5484534.

The target in this assay is 5,6-TAMRA-labeled short BMAL1 TAD (residues 594-626), wild type (mouse). Put plainly: fluorescence polarisation.

Chain of mouse CRY1 photolyase homology region (PHR, residues 1-491) (P97784 1-491): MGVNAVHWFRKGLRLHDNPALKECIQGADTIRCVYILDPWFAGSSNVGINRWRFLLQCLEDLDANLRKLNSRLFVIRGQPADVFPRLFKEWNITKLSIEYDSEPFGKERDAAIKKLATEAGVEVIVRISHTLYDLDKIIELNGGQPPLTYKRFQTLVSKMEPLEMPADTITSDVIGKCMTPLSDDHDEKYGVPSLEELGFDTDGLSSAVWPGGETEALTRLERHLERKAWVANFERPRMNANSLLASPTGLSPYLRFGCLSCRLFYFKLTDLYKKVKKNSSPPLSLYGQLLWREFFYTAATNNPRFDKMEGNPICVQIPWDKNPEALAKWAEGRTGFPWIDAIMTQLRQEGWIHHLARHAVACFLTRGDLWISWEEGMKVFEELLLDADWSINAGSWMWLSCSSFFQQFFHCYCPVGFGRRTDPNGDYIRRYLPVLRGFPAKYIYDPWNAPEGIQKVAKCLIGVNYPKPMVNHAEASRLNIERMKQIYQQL

In the case of “mouse CRY1 photolyase homology region (PHR, residues 1-491) (from UniProt P97784 1-491) (domain or fragment)”, the Kd is 900 nM.
